Assay results reported in the supplement of paper PMC6757056.
± gives the standard deviation of the averaged measurements.

B1: library; a variant is named by its letters at N, in order (parent)
chain: GCUGUCACCGAGAAACUGUGAAGUAUAUCUUAAACCUGGGCACUUAAAAGAUAUAUGGAGUUAGUAGUGCAACCUGCUCGGUCUGAUGAGUCCNNNNNNGGACGAAACAGC

How the values were obtained:
cyclic di-GMP [1] = variants of: B1; experiment: FACS-Seq fitted mean relative fluorescence mCherry/BFP without ligand (log10 relative fluorescence); HEK293T; ligand: cyclic di-GMP (c-di-GMP-II aptamer); higher = higher reporter protein expression; conditions: ligand present: no
In short: (§1)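 With or without ligand for 48 h, enriched HEK293T libraries carrying a lentiviral ribozyme-switch mCherry reporter and EF1α-BFP were sorted into 6 mCherry/BFP bins. Bin genomic DNA was amplified by PCR, barcoded and sequenced on MiSeq. Fluorescence was taken from normal fits to the resulting bin counts. Each fitted mean of log10(mCherry/BFP) was scaled to five spiked-in control ribozymes.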

cyclic di-GMP [2] = variants of: B1; experiment: normalized RNA/DNA level without ligand (relative to sTRSVctl = 100) (log10 (% of sTRSVctl)); HEK293T; ligand: cyclic di-GMP (c-di-GMP-II aptamer); higher = less ribozyme self-cleavage, higher mRNA level; conditions: reporter: mCherry (pCS4076), ligand present: no
Procedure: (§2)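 Hammerhead (sTRSV) ribozyme switch libraries with a ligand aptamer grafted on stem I and a randomized N4-6 loop II, cloned into the 3' UTR of mCherry and transiently transfected into HEK293T cells; RNA-Seq 72 h post transfection with ligand added 1 h before transfection; RNA read count / plasmid DNA read count normalized to the non-cleaving sTRSVctl (x100), log10; sequences with >100 DNA reads. FACS-Seq: lentiviral library sorted into 6 bins after 48 h ligand, log-normal fit mean of mCherry/BFP scaled to controls. Printed sequences are partial switch sequences.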

cyclic di-GMP [3] = variants of: B1; experiment: FACS-Seq fitted mean relative fluorescence mCherry/BFP with ligand (log10 relative fluorescence); HEK293T; ligand: cyclic di-GMP (c-di-GMP-II aptamer); ligand concentration (+) FACS-Seq: 1 mM; higher = higher reporter protein expression; conditions: ligand present: yes
In short: as §1

cyclic di-GMP [4] = variants of: B1; experiment: normalized RNA/DNA level with ligand (relative to sTRSVctl = 100) (log10 (% of sTRSVctl)); HEK293T; ligand: cyclic di-GMP (c-di-GMP-II aptamer); ligand concentration (+) RNA-Seq: 1 mM; higher = less ribozyme self-cleavage, higher mRNA level; conditions: reporter: mCherry (pCS4076), ligand present: yes
Procedure: as §2

Variant | FACS-Seq fitted mean (log10) (cyclic di-GMP [1]) | normalized RNA/DNA level without ligand (log10) (cyclic di-GMP [2]) | FACS-Seq fitted mean (log10) (cyclic di-GMP [3]) | normalized RNA/DNA level with ligand (log10) (cyclic di-GMP [4])
GAGUAA | -0.0125 ± 0.15 | 1.71 ± 0.027 | 0.165 ± 0.029 | 1.81 ± 0.069
GUGUUC | -0.72254 ± 0.00049 | 1.39 ± 0.14 | -0.527 ± 0.032 | 1.57 ± 0.14
AUUCGG | -0.4 ± 0.23 | 1.7 ± 0.019 | 0.0339 ± 0.063 | 1.82 ± 0.2
UACCAU | -0.473 ± 0.0049 | 1.663 ± 0.0085 | -0.0951 ± 0.092 | 1.8 ± 0.12
GUCCAA | 0.102 ± 0.033 | 1.57 ± 0.052 | 0.317 ± 0.11 | 1.74 ± 0.12
UAAUGA | -0.416 ± 0.019 | 1.597 ± 0.0061 | -0.112 ± 0.13 | 1.77 ± 0.086
ACUGGG | -0.467 ± 0.024 | 1.58 ± 0.07 | -0.104 ± 0.015 | 1.69 ± 0.11
AAGAUA | -0.4038 ± 0.0036 | 1.42 ± 0.094 | -0.0468 ± 0.065 | 1.63 ± 0.063
UGUAUA | -0.0844 ± 0.055 | 1.73 ± 0.083 | 0.221 ± 0.027 | 1.87 ± 0.073
GACUUU | -0.222 ± 0.11 | 1.723 ± 0.0052 | 0.162 ± 0.028 | 1.85 ± 0.083
GCUGCG | -1.43 ± 0.31 | 1.789 ± 0.016 | -1.28 ± 0.14 | 1.87 ± 0.13
UGCGAG | -0.503 ± 0.0063 | 1.7 ± 0.039 | -0.177 ± 0.052 | 1.8 ± 0.081
UGGGAA | -0.259 ± 0.11 | 1.57 ± 0.12 | -0.113 ± 0.048 | 1.77 ± 0.089
CCCAUA | -0.471 ± 0.0071 | 1.4 ± 0.11 | -0.164 ± 0.0037 | 1.65 ± 0.09
CGCUUA | -0.545 ± 0.077 | 1.27 ± 0.17 | -0.264 ± 0.015 | 1.46 ± 0.036
UUGGAA | -0.145 ± 0.025 | 1.61 ± 0.12 | 0.122 ± 0.11 | 1.78 ± 0.081
CGCCAA | -0.26 ± 0.2 | 1.37 ± 0.045 | 0.0764 ± 0.12 | 1.56 ± 0.15
CAGCAA | -0.468 ± 0.048 | 1.36 ± 0.094 | -0.2496 ± 0.00056 | 1.51 ± 0.061
CUCCGU | 0.15 ± 0.23 | 1.8 ± 0.02 | 0.423 ± 0.0021 | 1.88 ± 0.093
CGUUAU | -0.444 ± 0.047 | 1.42 ± 0.13 | -0.148 ± 0.06 | 1.61 ± 0.081
CUAAUG | -0.485 ± 0.042 | 1.49 ± 0.13 | -0.179 ± 0.011 | 1.7 ± 0.092
GUGGAA | -0.382 ± 0.021 | 1.4 ± 0.087 | -0.0891 ± 0.076 | 1.63 ± 0.092
GUGGAC | -0.519 ± 0.08 | 1.55 ± 0.092 | -0.171 ± 0.053 | 1.75 ± 0.095
AUGGAA | -0.588 ± 0.0092 | 1.33 ± 0.13 | -0.293 ± 0.033 | 1.53 ± 0.14

Variant | FACS-Seq fitted mean (log10) (cyclic di-GMP [1]) | normalized RNA/DNA level without ligand (log10) (cyclic di-GMP [2]) | FACS-Seq fitted mean (log10) (cyclic di-GMP [3]) | normalized RNA/DNA level with ligand (log10) (cyclic di-GMP [4])
CUGAGU | -0.459 ± 0.047 | 1.7 ± 0.022 | -0.264 ± 0.00087 | 1.83 ± 0.12
GAAAUA | 0.098 ± 0.25 | 1.47 ± 0.079 | 0.291 ± 0.031 | 1.65 ± 0.12
UGGACU | -0.517 ± 0.12 | 1.69 ± 0.076 | -0.118 ± 0.075 | 1.86 ± 0.045
AAACAC | -0.457 ± 0.011 | 1.6 ± 0.035 | -0.124 ± 0.07 | 1.75 ± 0.082
CUAACU | -0.381 ± 0.006 | 1.59 ± 0.025 | -0.0873 ± 0.0047 | 1.74 ± 0.1
CUGUCA | -0.00992 ± 0.023 | 1.52 ± 0.13 | 0.247 ± 0.011 | 1.68 ± 0.13
GUUAGG | -0.197 ± 0.021 | 1.56 ± 0.061 | 0.171 ± 0.057 | 1.72 ± 0.076
CUGUAU | -0.00585 ± 0.097 | 1.56 ± 0.039 | 0.2727 ± 0.0019 | 1.72 ± 0.07
AUGGUG | -0.341 ± 0.087 | 1.56 ± 0.1 | -0.113 ± 0.021 | 1.7 ± 0.094
ACAAGA | -0.604 ± 0.026 | 1.26 ± 0.14 | -0.428 ± 0.022 | 1.46 ± 0.023
GUCAGG | -1.25 ± 0.11 | 1.74 ± 0.063 | -0.78 ± 0.093 | 1.81 ± 0.087
UAAUCU | -0.884 ± 0.042 | 1.718 ± 0.0051 | -0.707 ± 0.054 | 1.85 ± 0.08
UAAUCG | -0.029 ± 0.037 | 1.7 ± 0.017 | 0.149 ± 0.061 | 1.82 ± 0.17
GGAGGC | 0.132 ± 0.076 | 1.6 ± 0.065 | 0.234 ± 0.067 | 1.79 ± 0.072
AAUGAG | -0.328 ± 0.065 | 1.54 ± 0.048 | 0.0671 ± 0.032 | 1.71 ± 0.093
AAUGAA | -0.0795 ± 0.021 | 1.46 ± 0.097 | 0.113 ± 0.065 | 1.63 ± 0.097
CAGACA | -0.617 ± 0.0047 | 1.33 ± 0.059 | -0.36 ± 0.034 | 1.51 ± 0.13
CAUCGA | -0.063 ± 0.043 | 1.64 ± 0.057 | 0.144 ± 0.0063 | 1.78 ± 0.07
CCGGUA | -0.505 ± 0.068 | 1.36 ± 0.12 | -0.223 ± 0.059 | 1.61 ± 0.087
CGCAAA | -0.531 ± 0.011 | 1.26 ± 0.097 | -0.262 ± 0.015 | 1.47 ± 0.085
GUUAAG | -0.00319 ± 0.05 | 1.55 ± 0.05 | 0.189 ± 0.031 | 1.72 ± 0.098
CGUUCC | -0.821 ± 0.086 | 1.735 ± 0.0027 | -0.407 ± 0.1 | 1.87 ± 0.13
AAGAAU | -0.565 ± 0.046 | 1.54 ± 0.062 | -0.225 ± 0.05 | 1.74 ± 0.073
AAGAGA | -0.637 ± 0.058 | 1.33 ± 0.078 | -0.296 ± 0.066 | 1.54 ± 0.094

Variant | FACS-Seq fitted mean (log10) (cyclic di-GMP [1]) | normalized RNA/DNA level without ligand (log10) (cyclic di-GMP [2]) | FACS-Seq fitted mean (log10) (cyclic di-GMP [3]) | normalized RNA/DNA level with ligand (log10) (cyclic di-GMP [4])
AUAAUA | -0.503 ± 0.0074 | 1.58 ± 0.0077 | -0.158 ± 0.15 | 1.75 ± 0.092
UCCUCC | -0.766 ± 0.014 | 1.81 ± 0.047 | -0.515 ± 0.021 | 1.91 ± 0.17
GCUUCU | -0.15612 ± 8.5e-05 | 1.74 ± 0.019 | 0.0598 ± 0.018 | 1.87 ± 0.11
GAGCGC | -0.228 ± 0.14 | 1.79 ± 0.049 | -0.101 ± 0.16 | 1.83 ± 0.082
GAGCGU | -1.38 ± 0.089 | 1.814 ± 0.0041 | -1.2 ± 0.013 | 1.9 ± 0.052
CGUGAU | -0.47 ± 0.026 | 1.45 ± 0.057 | -0.173 ± 0.018 | 1.69 ± 0.07
UGGCAU | 0.119 ± 0.25 | 1.66 ± 0.11 | 0.414 ± 0.038 | 1.82 ± 0.043
CAAUCA | -0.5458 ± 0.0024 | 1.4 ± 0.11 | -0.364 ± 0.017 | 1.61 ± 0.085
UAGUGG | -0.133 ± 0.082 | 1.71 ± 0.064 | 0.162 ± 0.086 | 1.84 ± 0.069
GCACAA | -0.339 ± 0.051 | 1.41 ± 0.051 | 0.0543 ± 0.037 | 1.62 ± 0.11
AGGUCA | -0.483 ± 0.071 | 1.649 ± 0.0037 | -0.219 ± 0.037 | 1.77 ± 0.14
CAUUAU | -0.4943 ± 0.0018 | 1.54 ± 0.098 | -0.353 ± 0.08 | 1.71 ± 0.1
GCUGUG | -0.283 ± 0.07 | 1.64 ± 0.018 | -0.00737 ± 0.013 | 1.79 ± 0.085
CUUAAA | -0.598 ± 0.053 | 1.37 ± 0.072 | -0.238 ± 0.21 | 1.53 ± 0.16
CGGGUG | -0.608 ± 0.14 | 1.62 ± 0.026 | -0.7531 ± 0.0033 | 1.82 ± 0.12
ACACGG | -0.501 ± 0.0065 | 1.53 ± 0.084 | -0.192 ± 0.029 | 1.69 ± 0.1
AUCGGA | -0.605 ± 0.038 | 1.53 ± 0.043 | -0.31 ± 0.055 | 1.7 ± 0.086
UUGAAG | -0.189 ± 0.02 | 1.639 ± 0.0094 | 0.0171 ± 0.037 | 1.81 ± 0.12
GAAAAA | -0.369 ± 0.068 | 1.41 ± 0.1 | -0.0537 ± 0.033 | 1.61 ± 0.12
GAAAAG | -0.45 ± 0.058 | 1.575 ± 0.0029 | -0.228 ± 0.032 | 1.74 ± 0.14
CGUUUA | -0.544 ± 0.037 | 1.32 ± 0.077 | -0.288 ± 0.098 | 1.46 ± 0.064
UCAGAU | -0.378 ± 0.029 | 1.49 ± 0.067 | -0.0266 ± 0.08 | 1.67 ± 0.078
AAAAGC | 0.0679 ± 0.01 | 1.58 ± 0.045 | 0.227 ± 0.045 | 1.73 ± 0.089
